System: (KW)2KKA-eGFP-AKK(WK)2 (DNA-staining eGFP) (synthetic construct (eGFP from Aequorea victoria?))
Experiment: EMSA
Conditions: about; apparent Kd; TE/glycerol, 0.5x TBE 4-20% gel, EtBr stain

CTACTAGCACAATCGACTGTACGGACCGATCGAGTCACTAGCAGTCTAGCAA (double strand) [52-mer random sequence dsDNA]
Kd: 14.7 µM

From patent US20170122849
